Test results from patent US20260049138A1 (Chugai, published 2026).
Residue numbers refer to the chain shown, from its start. In names and notes the source's numbering stands.

B1: CE115HA000 H96S one-arm antibody (antibody, human IgG1, kappa, L234A L235A, N297A, name in Kabat numbering)
heavy: QVQLVESGGGVVQPGRSLRLSCAASGFTFSNAWMHWVRQAPGKGLEWVAQIKAKSNNYATYYAESVKGRFTISRDDSKNSLYLQMNSLKTEDTAVYYCRYVSYGAYYGVDAWGQGTTVTVSSASTKGPSVFPLAPSSKSTSGGTAALGCLVKDYFPEPVTVSWNSGALTSGVHTFPAVLQSSGLYSLSSVVTVPSSSLGTQTYICNVNHKPSNTKVDKKVEPKSCDKTHTCPPCPAPEAAGGPSVFLFPPKPKDTLMISRTPEVTCVVVDVSHEDPEVKFNWYVDGVEVHNAKTKPREEQYASTYRVVSVLTVLHQDWLNGKEYKCKVSNKALPAPIEKTISKAKGQPREPQVYTLPPSRCELTKNQVSLSCAVKGFYPSDIAVEWESNGQPENNYKTTPPVLDSDGSFFLVSKLTVDKSRWQQGNVFSCSVMHEALHNHYTQKSLSLSPDYKDDDDK
chain: EPKSSDKTHTCPPCPAPELLGGPSVFLFPPKPKDTLMISRTPEVTCVVVDVSHEDPEVKFNWYVDGVEVHNAKTKPREEQYNSTYRVVSVLTVLHQDWLNGKEYKCKVSNKALPAPIEKTISKAKGQPREPQVCTLPPSRDELTKNQVSLWCLVKGFYPSDIAVEWESNGQPENNYKTTPPVLDSDGSFFLYSKLTVDKSRWQQGNVFSCSVMHEALHNRYTQKSLSLSP
light: DIVMTQSPLSLPVTPGEPASISCRSSQSLVHSNRNTYLHWYQQKPGQAPRLLIYKVSNRFSGVPDRFSGSGSGTDFTLKISRVEAEDVGVYYCGQGTQVPYTFGQGTKLEIKRTVAAPSVFIFPPSDEQLKSGTASVVCLLNNFYPREAKVQWKVDNALQSGNSQESVTEQDSKDSTYSLSSTLTLSKADYEKHKVYACEVTHQGLSSPVTKSFNRGEC
B2: CE115HA000 K43E one-arm antibody (antibody, human IgG1, kappa, L234A L235A, N297A, name in Kabat numbering)
heavy: B1 heavy with K43E, S102H
chain: B1 chain
light: B1 light
B3: CE115HA000 I51D one-arm antibody (antibody, human IgG1, kappa, L234A L235A, N297A, name in Kabat numbering)
heavy: B1 heavy with I51D, S102H
chain: B1 chain
light: B1 light
B4: CE115HA000 I51E one-arm antibody (antibody, human IgG1, kappa, L234A L235A, N297A, name in Kabat numbering)
heavy: B1 heavy with I51E, S102H
chain: B1 chain
light: B1 light
B5: CE115HA000 K52E one-arm antibody (antibody, human IgG1, kappa, L234A L235A, N297A, name in Kabat numbering)
heavy: B1 heavy with K52E, S102H
chain: B1 chain
light: B1 light
B6: CE115HA000 K52D one-arm antibody (antibody, human IgG1, kappa, L234A L235A, N297A, name in Kabat numbering)
heavy: B1 heavy with K52D, S102H
chain: B1 chain
light: B1 light
B7: CE115HA000 K43Q one-arm antibody (antibody, human IgG1, kappa, L234A L235A, N297A, name in Kabat numbering)
heavy: B1 heavy with K43Q, S102H
chain: B1 chain
light: B1 light
B8: CE115HA000 K52H one-arm antibody (antibody, human IgG1, kappa, L234A L235A, N297A, name in Kabat numbering)
heavy: B1 heavy with K52H, S102H
chain: B1 chain
light: B1 light
B9: CE115HA000 K52F one-arm antibody (antibody, human IgG1, kappa, L234A L235A, N297A, name in Kabat numbering)
heavy: B1 heavy with K52F, S102H
chain: B1 chain
light: B1 light
B10: CE115HA000 H96Y one-arm antibody (antibody, human IgG1, kappa, L234A L235A, N297A, name in Kabat numbering)
heavy: B1 heavy with S102Y
chain: B1 chain
light: B1 light

These binders were tested against T1, CD3ε homodimer protein (human, UniProt P07766 23-126, limits assumed, sulfo-tag or biotin label in the ECL assays; amine-coupled to the chip in SPR) (assay: SPR Biacore T200; CD3ε homodimer on CM4 chip;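 further: Single-residue variant antibodies injected as analyte over CD3ε homodimer immobilized by amine coupling, run at 25 °C in HBS-EP+ buffer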).
T1 construct: also called human CD3ε homodimer protein; CD3 (CD3ε)
T1 sequence (P07766 23-126 limits assumed): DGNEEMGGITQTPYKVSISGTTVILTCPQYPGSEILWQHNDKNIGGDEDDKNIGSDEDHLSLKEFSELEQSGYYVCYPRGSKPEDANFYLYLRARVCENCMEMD
Description: An appropriate amount of CD3ε homodimer protein was immobilized onto Sensor chip CM4 (GE Healthcare Japan Corp.) by the amine coupling method. Then, the antibody having an appropriate concentration was injected thereto as an analyte and allowed to interact with the CD3ε homodimer protein on the sensor chip. Then, the sensor chip was regenerated by the injection of 10 mmol/L glycine-HCl (pH 1.5). The assay was conducted at 25° C., and HBS-EP+ (GE Healthcare Japan Corp.) was used as a running buffer. […] Each parameter was calculated using Biacore T200 Evaluation Software (GE Healthcare Japan Corp.).

ratio of amounts bound Z=Y/X (altered form / CE115HA000)	Binder
0.44	B1
0.9	B2
0.29	B3
0.55	B4
0.26	B5
0.25	B6
0.99	B7
0.22	B8
0.17	B9
0.17	B10
